These are literature values, as cited in paper PMC8671346.

In general, Kd refers to the constant that tells how readily two partners part at equilibrium.

Data set [1] addresses GM-CSF receptor alpha chain (GMRα) (Homo sapiens) (UniProt P15509).
Data set [2] has as its target GM-CSF receptor (GMRα/βc) (Homo sapiens) (UniProt P15509).

Regarding GM-CSF (from UniProt P04141), the Kd in data set [1] is 5 nM; in data set [2], 0.1 nM.
